Experimental data taken from patent US20240075137A1.

Experiments:
[1] = target: mouse PVRIG on cells (mouse); experiment: FACS titration, D10.G4.1 cells
[2] = target: mouse PVRIG on cells (mouse); experiment: FACS, D10.G4.1 cells vs isotype
[3] = target: mouse PVRIG on cells (mouse); experiment: FACS, NK cells, 10 ug/ml vs isotype
[4] = target: mouse PVRIG on cells (mouse); experiment: FACS titration, HEK293 mPVRIG over-expressing cells
[5] = target: mouse PVRIG on cells (mouse); experiment: FACS, HEK293 mPVRIG over-expressing vs empty vector cells, 10 ug/ml
[6] = target: mouse PVRIG-Fc fusion protein (mouse); experiment: blocking of mPVRIG-Fc (029-Fc) binding to mPVRL2 over-expressing cells

Kd [1]: 1.32 nM
MFIr on D10.G4.1 (Ab/Iso) [2]: 8
MFIr on NK cells (Ab/Iso) [3]: 2.8
Kd [4]: 0.334 nM
MFIr (HEK OX/EV) [5]: 50
% R-L blocking [6]: 95%
IC50 [6]: 3.99 nM
B1: AB-407 (antibody, V domains shown)
VH: QVQLQQSGAELAKPGSSVMISCKASGYTFTNYAVHWIKQTTGQALEWTGYIAPGSGVTKYNEKFKGKATLTVDKSSTTAYMQLSSLTPVDTAVYYCASGTTRFAYWGQGTLVTVSS
VL: DIVLTQSPALAVSLGQRATISCRASQSVSLSSYNLMQWYQQKPGQEPKILIYDASNLPSGIPARFSGSGSGTDFTLTIDPVQADDIATYYCQQSKDDPLTFGSGTKLEIK
